According to patent US20100048462A1, “TRUNCATED PTH PEPTIDES WITH A CYCLIC CONFORMATION” (Zealand Pharma A/S, priority 2006, published 2010):
Read-outs that look alike come from different tables or passages of the source. One block for each molecule: values may come before it. Bridge positions count the residues as written; N and C are the ends. Square brackets hold non-standard residues; d marks the D form. hArg = N=C(N)NCCCC[C@H](N)C(=O)O; Ac5c = NC1(C(=O)O)CCCC1; Dap = NC[C@H](N)C(=O)O; Aib = CC(C)(N)C(=O)O

Columns and labels:
Assay in all cases: cell-based or functional assay
[1] = target: PTH receptor 1 on MC3T3-E1 cells (murine) (UniProt P41593)
Chain of PTH receptor 1 on MC3T3-E1 cells (murine) (P41593 27-591): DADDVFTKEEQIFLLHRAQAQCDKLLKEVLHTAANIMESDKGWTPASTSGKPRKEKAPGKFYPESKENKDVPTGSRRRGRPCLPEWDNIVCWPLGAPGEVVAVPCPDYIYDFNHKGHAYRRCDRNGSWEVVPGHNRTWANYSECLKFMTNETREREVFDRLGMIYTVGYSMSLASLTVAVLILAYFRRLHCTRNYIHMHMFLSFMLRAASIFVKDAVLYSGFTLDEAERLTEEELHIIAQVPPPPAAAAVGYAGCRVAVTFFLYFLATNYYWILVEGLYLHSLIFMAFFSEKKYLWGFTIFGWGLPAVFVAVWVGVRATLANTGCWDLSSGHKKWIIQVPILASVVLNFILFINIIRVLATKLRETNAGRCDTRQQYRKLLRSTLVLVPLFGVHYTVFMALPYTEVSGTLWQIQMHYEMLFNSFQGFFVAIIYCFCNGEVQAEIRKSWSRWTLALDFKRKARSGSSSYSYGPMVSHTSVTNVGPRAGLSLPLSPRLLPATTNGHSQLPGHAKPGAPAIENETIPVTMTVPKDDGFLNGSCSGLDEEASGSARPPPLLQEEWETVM

Saos-2 PTH1R = Saos-2 PTH1R (UniProt Q03431)
Chain of Saos-2 PTH1R (Q03431 27-593 limits assumed): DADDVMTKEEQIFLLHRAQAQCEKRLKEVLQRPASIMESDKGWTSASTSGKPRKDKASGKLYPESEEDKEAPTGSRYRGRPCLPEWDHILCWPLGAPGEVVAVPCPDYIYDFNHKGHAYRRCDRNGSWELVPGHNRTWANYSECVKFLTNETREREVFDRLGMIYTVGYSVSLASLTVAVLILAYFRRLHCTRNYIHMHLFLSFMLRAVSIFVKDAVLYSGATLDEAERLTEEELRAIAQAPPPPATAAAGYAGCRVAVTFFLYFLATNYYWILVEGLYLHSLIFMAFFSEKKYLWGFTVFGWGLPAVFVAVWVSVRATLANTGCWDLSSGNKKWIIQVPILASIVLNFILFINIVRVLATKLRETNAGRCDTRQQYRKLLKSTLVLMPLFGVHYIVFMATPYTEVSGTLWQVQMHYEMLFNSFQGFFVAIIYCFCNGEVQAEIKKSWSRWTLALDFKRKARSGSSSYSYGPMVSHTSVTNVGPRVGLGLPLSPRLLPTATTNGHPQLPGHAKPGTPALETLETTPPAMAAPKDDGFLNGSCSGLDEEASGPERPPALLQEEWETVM

CYP2D6 = CYP2D6 (Homo sapiens, UniProt P10635)
Chain of CYP2D6 (P10635 whole entry): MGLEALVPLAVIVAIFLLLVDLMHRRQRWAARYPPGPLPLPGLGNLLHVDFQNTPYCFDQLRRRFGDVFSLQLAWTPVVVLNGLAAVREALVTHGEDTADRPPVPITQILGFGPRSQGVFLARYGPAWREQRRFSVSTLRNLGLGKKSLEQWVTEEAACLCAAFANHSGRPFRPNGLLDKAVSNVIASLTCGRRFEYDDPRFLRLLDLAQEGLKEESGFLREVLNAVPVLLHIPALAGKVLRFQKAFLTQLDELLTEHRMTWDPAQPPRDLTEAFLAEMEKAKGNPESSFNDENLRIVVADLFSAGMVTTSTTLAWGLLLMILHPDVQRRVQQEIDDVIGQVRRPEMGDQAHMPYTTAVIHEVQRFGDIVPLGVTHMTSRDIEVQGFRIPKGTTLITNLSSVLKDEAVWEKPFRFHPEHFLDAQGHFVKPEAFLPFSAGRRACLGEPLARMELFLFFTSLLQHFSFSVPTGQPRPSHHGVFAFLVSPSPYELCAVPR

Emax, cAMP efficacy assay in MC3T3-E1 cells [1]: 4.4 pmol/well
Molecule: PTH(1-34) (peptide)

EC50, cAMP in an osteoblast-like cell line (MC3T3-E1) [1]: 1 nM | Emax, cAMP efficacy assay in MC3T3-E1 cells [1]: 4.9 pmol/well | agonist potency relative to SEQ ID NO: 2, cAMP in MC3T3-E1 cells [1]: 6 fold weaker | pEC50, cAMP efficacy assay in MC3T3-E1 cells [1]: 9 -log(M) | Emax, cAMP efficacy assay in MC3T3-E1 cells ([1]; record 2): 5.7 pmol/well | pEC50, cAMP efficacy assay in MC3T3-E1 cells ([1]; record 2): 8.2 -log(M) | Emax, cAMP efficacy assay in Saos-2 cells (2A, acetate salt) (relative to control (SEQ ID NO: 32)) (Saos-2 PTH1R): 0.99 | Emax, cAMP efficacy assay in Saos-2 cells (2C, chloride salt) (relative to control (SEQ ID NO: 32)) (Saos-2 PTH1R): 0.94 | Emax, cAMP efficacy assay in Saos-2 cells (2T, trifluoroacetate salt) (relative to control (SEQ ID NO: 32)) (Saos-2 PTH1R): 0.7 | Emax, cAMP efficacy assay in Saos-2 cells (42T, trifluoroacetate salt) (relative to control (SEQ ID NO: 32)) (Saos-2 PTH1R): 1.03 | pEC50, cAMP efficacy assay in Saos-2 cells (2A, acetate salt) (Saos-2 PTH1R): 8.2 -log(M) | pEC50, cAMP efficacy assay in Saos-2 cells (2C, chloride salt) (Saos-2 PTH1R): 8.18 -log(M) | pEC50, cAMP efficacy assay in Saos-2 cells (2T, trifluoroacetate salt) (Saos-2 PTH1R): 8.18 -log(M) | pEC50, cAMP efficacy assay in Saos-2 cells (42T, trifluoroacetate salt) (Saos-2 PTH1R): 7.68 -log(M) | CYP2D6 activity (% of vehicle), dextrorphan formation rate in human liver microsomes, 10 µM peptide (CYP2D6): 29 % of vehicle | CYP2D6 activity (% of vehicle), dextrorphan formation rate in human liver microsomes, 10 µM peptide (CYP2D6; record 2): 67 % of vehicle
B2: H-Ac5c-Val-Aib-Glu-Ile-Gln-Leu-Met-His-Gln-Har-Ala-Lys-Trp-Leu-Asn-Asp-NH2 (peptide)
chain: H-[Ac5c]V[Aib]EIQLMHQ[hArg]AKWLND-NH2
SMILES: CC[C@H](C)[C@H](NC(=O)[C@H](CCC(=O)O)NC(=O)C(C)(C)NC(=O)[C@@H](NC(=O)C1(N)CCCC1)C(C)C)C(=O)N[C@@H](CCC(N)=O)C(=O)N[C@@H](CC(C)C)C(=O)N[C@@H](CCSC)C(=O)N[C@@H](Cc1c[nH]cn1)C(=O)N[C@@H](CCC(N)=O)C(=O)N[C@@H](CCCCNC(=N)N)C(=O)N[C@@H](C)C(=O)N[C@@H](CCCCN)C(=O)N[C@@H](Cc1c[nH]c2ccccc12)C(=O)N[C@@H](CC(C)C)C(=O)N[C@@H](CC(N)=O)C(=O)N[C@@H](CC(=O)O)C(N)=O

Emax, cAMP efficacy assay in Saos-2 cells (21T, trifluoroacetate salt) (relative to control (SEQ ID NO: 32)) (Saos-2 PTH1R): 1.4 | pEC50, cAMP efficacy assay in Saos-2 cells (21T, trifluoroacetate salt) (Saos-2 PTH1R): 6.82 -log(M) | CYP2D6 activity (% of vehicle), dextrorphan formation rate in human liver microsomes, 10 µM peptide (CYP2D6): 92 % of vehicle
B5: H-Ac5c-Val-Aib-Glu-Ile-Gln-Leu-Val-His-Gln-Har-Ala-Lys( )-Trp-Leu-Asn-Asp( )-NH2 (peptide)
chain: H-[Ac5c]V[Aib]EIQLVHQ[hArg]AKWLND-NH2
modifications: lactam 13-17
SMILES: CC[C@H](C)[C@H](NC(=O)[C@H](CCC(=O)O)NC(=O)C(C)(C)NC(=O)[C@@H](NC(=O)C1(N)CCCC1)C(C)C)C(=O)N[C@@H](CCC(N)=O)C(=O)N[C@@H](CC(C)C)C(=O)N[C@H](C(=O)N[C@@H](Cc1c[nH]cn1)C(=O)N[C@@H](CCC(N)=O)C(=O)N[C@@H](CCCCNC(=N)N)C(=O)N[C@@H](C)C(=O)N[C@H]1CCCCNC(=O)C[C@@H](C(N)=O)NC(=O)[C@H](CC(N)=O)NC(=O)[C@H](CC(C)C)NC(=O)[C@H](Cc2c[nH]c3ccccc23)NC1=O)C(C)C

The remaining lines, values behind:

Molecule: (H-Ac5c-Val-Aib-Glu-Ile-Gln-Leu-Met-His-Gln-Har-Ala-Lys( )-Trp-Leu-Asp( )-NH2)2 (peptide)
EC50, cAMP in an osteoblast-like cell line (MC3T3-E1) [1]: 1 nM | Emax, cAMP efficacy assay in MC3T3-E1 cells [1]: 5 pmol/well | agonist potency relative to SEQ ID NO: 30, cAMP in MC3T3-E1 cells (fold stronger) [1]: 8 | pEC50, cAMP efficacy assay in MC3T3-E1 cells [1]: 8.9 -log(M) | Emax, cAMP efficacy assay in Saos-2 cells (33T, trifluoroacetate salt) (relative to control (SEQ ID NO: 32)) (Saos-2 PTH1R): 1.1 | pEC50, cAMP efficacy assay in Saos-2 cells (33T, trifluoroacetate salt) (Saos-2 PTH1R): 7.88 -log(M)

Molecule: H-Ac5c-Val-Aib-Glu-Ile-Gln-Leu-Met-His-Gln-Har-Ala-Lys( )-Trp-Leu-Asp( )-NH2 (peptide)
Emax, cAMP efficacy assay in MC3T3-E1 cells [1]: 5 pmol/well | pEC50, cAMP efficacy assay in MC3T3-E1 cells [1]: 8 -log(M) | Emax, cAMP efficacy assay in Saos-2 cells (30T, trifluoroacetate salt) (relative to control (SEQ ID NO: 32)) (Saos-2 PTH1R): 1.04 | pEC50, cAMP efficacy assay in Saos-2 cells (30T, trifluoroacetate salt) (Saos-2 PTH1R): 7.09 -log(M) | CYP2D6 activity (% of vehicle), dextrorphan formation rate in human liver microsomes, 10 µM peptide (CYP2D6): 83 % of vehicle

B1: H-Ac5c-Val-Aib-Glu-Ile-Gln-Leu-Met-His-Gln-Har-Ala-Cys( )-Trp-Leu-Asn-Cys( )-NH2 (peptide)
chain: H-[Ac5c]V[Aib]EIQLMHQ[hArg]ACWLNC-NH2
modifications: disulfide 13-17
SMILES: CC[C@H](C)[C@H](NC(=O)[C@H](CCC(=O)O)NC(=O)C(C)(C)NC(=O)[C@@H](NC(=O)C1(N)CCCC1)C(C)C)C(=O)N[C@@H](CCC(N)=O)C(=O)N[C@@H](CC(C)C)C(=O)N[C@@H](CCSC)C(=O)N[C@@H](Cc1c[nH]cn1)C(=O)N[C@@H](CCC(N)=O)C(=O)N[C@@H](CCCCNC(=N)N)C(=O)N[C@@H](C)C(=O)N[C@H]1CSSC[C@@H](C(N)=O)NC(=O)[C@H](CC(N)=O)NC(=O)[C@H](CC(C)C)NC(=O)[C@H](Cc2c[nH]c3ccccc23)NC1=O
Emax, cAMP efficacy assay in Saos-2 cells (7T, trifluoroacetate salt) (relative to control (SEQ ID NO: 32)) (Saos-2 PTH1R): 1.2 | pEC50, cAMP efficacy assay in Saos-2 cells (7T, trifluoroacetate salt) (Saos-2 PTH1R): 7.3 -log(M) | CYP2D6 activity (% of vehicle), dextrorphan formation rate in human liver microsomes, 10 µM peptide (CYP2D6): 85 % of vehicle

B3: H-Ac5c-Val-Aib-Glu-Ile-Gln-Leu-Met-His-Gln-Har-Ala-Lys( )-Trp-Leu-Asn-Glu( )-NH2 (peptide)
chain: H-[Ac5c]V[Aib]EIQLMHQ[hArg]AKWLNE-NH2
modifications: lactam 13-17
SMILES: CC[C@H](C)[C@H](NC(=O)[C@H](CCC(=O)O)NC(=O)C(C)(C)NC(=O)[C@@H](NC(=O)C1(N)CCCC1)C(C)C)C(=O)N[C@@H](CCC(N)=O)C(=O)N[C@@H](CC(C)C)C(=O)N[C@@H](CCSC)C(=O)N[C@@H](Cc1c[nH]cn1)C(=O)N[C@@H](CCC(N)=O)C(=O)N[C@@H](CCCCNC(=N)N)C(=O)N[C@@H](C)C(=O)N[C@H]1CCCCNC(=O)CC[C@@H](C(N)=O)NC(=O)[C@H](CC(N)=O)NC(=O)[C@H](CC(C)C)NC(=O)[C@H](Cc2c[nH]c3ccccc23)NC1=O
Emax, cAMP efficacy assay in Saos-2 cells (9T, trifluoroacetate salt) (relative to control (SEQ ID NO: 32)) (Saos-2 PTH1R): 1.03 | pEC50, cAMP efficacy assay in Saos-2 cells (9T, trifluoroacetate salt) (Saos-2 PTH1R): 7.85 -log(M) | CYP2D6 activity (% of vehicle), dextrorphan formation rate in human liver microsomes, 10 µM peptide (CYP2D6): 85 % of vehicle

B4: H-Ac5c-Val-Aib-Glu-Ile-Gln-Leu-Met-His-Asn-Leu-Gly-Lys-His-Leu-Asn-Asp-NH2 (peptide)
chain: H-[Ac5c]V[Aib]EIQLMHNLGKHLND-NH2
SMILES: CC[C@H](C)[C@H](NC(=O)[C@H](CCC(=O)O)NC(=O)C(C)(C)NC(=O)[C@@H](NC(=O)C1(N)CCCC1)C(C)C)C(=O)N[C@@H](CCC(N)=O)C(=O)N[C@@H](CC(C)C)C(=O)N[C@@H](CCSC)C(=O)N[C@@H](Cc1c[nH]cn1)C(=O)N[C@@H](CC(N)=O)C(=O)N[C@@H](CC(C)C)C(=O)NCC(=O)N[C@@H](CCCCN)C(=O)N[C@@H](Cc1c[nH]cn1)C(=O)N[C@@H](CC(C)C)C(=O)N[C@@H](CC(N)=O)C(=O)N[C@@H](CC(=O)O)C(N)=O
Emax, cAMP efficacy assay in Saos-2 cells (34T, trifluoroacetate salt) (relative to control (SEQ ID NO: 32)) (Saos-2 PTH1R): 1.12 | pEC50, cAMP efficacy assay in Saos-2 cells (34T, trifluoroacetate salt) (Saos-2 PTH1R): 6.67 -log(M) | CYP2D6 activity (% of vehicle), dextrorphan formation rate in human liver microsomes, 10 µM peptide (CYP2D6): 57 % of vehicle | CYP2D6 activity (% of vehicle), dextrorphan formation rate in human liver microsomes, 10 µM peptide (CYP2D6; record 2): 107 % of vehicle

Molecule: H-[Ac5c]V[Aib]EIQLLHQ[hArg]AKWLND-NH2 (lactam 13-17; also: acetate and trifluoroacetate salts) [H-Ac5c-Val-Aib-Glu-Ile-Gln-Leu-Leu-His-Gln-Har-Ala-Lys( )-Trp-Leu-Asn-Asp( )-NH2]
Emax, cAMP efficacy assay in Saos-2 cells (19A/T, acetate/trifluoroacetate salts) (relative to control (SEQ ID NO: 32)) (Saos-2 PTH1R): 1.05 | pEC50, cAMP efficacy assay in Saos-2 cells (19A/T, acetate/trifluoroacetate salts) (Saos-2 PTH1R): 7.99 -log(M) | CYP2D6 activity (% of vehicle), dextrorphan formation rate in human liver microsomes, 10 µM peptide (CYP2D6): 90 % of vehicle

B6: H-Ac5c-Val-Aib-Glu-Ile-Gln-Leu-Leu-His-Gln-Har-Ala-Dpr( )-Trp-Leu-Asn-Asp( )-NH2 (peptide)
chain: H-[Ac5c]V[Aib]EIQLLHQ[hArg]A[Dap]WLND-NH2
modifications: lactam 13-17
SMILES: CC[C@H](C)[C@H](NC(=O)[C@H](CCC(=O)O)NC(=O)C(C)(C)NC(=O)[C@@H](NC(=O)C1(N)CCCC1)C(C)C)C(=O)N[C@@H](CCC(N)=O)C(=O)N[C@@H](CC(C)C)C(=O)N[C@@H](CC(C)C)C(=O)N[C@@H](Cc1c[nH]cn1)C(=O)N[C@@H](CCC(N)=O)C(=O)N[C@@H](CCCCNC(=N)N)C(=O)N[C@@H](C)C(=O)N[C@H]1CNC(=O)C[C@@H](C(N)=O)NC(=O)[C@H](CC(N)=O)NC(=O)[C@H](CC(C)C)NC(=O)[C@H](Cc2c[nH]c3ccccc23)NC1=O
Emax, cAMP efficacy assay in Saos-2 cells (17T, trifluoroacetate salt) (relative to control (SEQ ID NO: 32)) (Saos-2 PTH1R): 1.25 | pEC50, cAMP efficacy assay in Saos-2 cells (17T, trifluoroacetate salt) (Saos-2 PTH1R): 6.11 -log(M) | CYP2D6 activity (% of vehicle), dextrorphan formation rate in human liver microsomes, 10 µM peptide (CYP2D6): 101 % of vehicle
